Among the data in US20210032352A1 (ANTERA THERAPEUTICS, published 2021) are Kd values, retold here.

Holding throughout (experiment): kinetic table (called BLI in paragraph 35); quantity name and unit not printed in the table: KD in M follows from FIG. 12A
Experiment [1] has as its target T1, human LRP6 ECD, Fc-tagged (human, UniProt O75581 20-1370).
T1 construct: extracellular domain; Bought; also called LRP co-receptor; not shown: Fc tag of the purchased fusion
T1 sequence (looked up): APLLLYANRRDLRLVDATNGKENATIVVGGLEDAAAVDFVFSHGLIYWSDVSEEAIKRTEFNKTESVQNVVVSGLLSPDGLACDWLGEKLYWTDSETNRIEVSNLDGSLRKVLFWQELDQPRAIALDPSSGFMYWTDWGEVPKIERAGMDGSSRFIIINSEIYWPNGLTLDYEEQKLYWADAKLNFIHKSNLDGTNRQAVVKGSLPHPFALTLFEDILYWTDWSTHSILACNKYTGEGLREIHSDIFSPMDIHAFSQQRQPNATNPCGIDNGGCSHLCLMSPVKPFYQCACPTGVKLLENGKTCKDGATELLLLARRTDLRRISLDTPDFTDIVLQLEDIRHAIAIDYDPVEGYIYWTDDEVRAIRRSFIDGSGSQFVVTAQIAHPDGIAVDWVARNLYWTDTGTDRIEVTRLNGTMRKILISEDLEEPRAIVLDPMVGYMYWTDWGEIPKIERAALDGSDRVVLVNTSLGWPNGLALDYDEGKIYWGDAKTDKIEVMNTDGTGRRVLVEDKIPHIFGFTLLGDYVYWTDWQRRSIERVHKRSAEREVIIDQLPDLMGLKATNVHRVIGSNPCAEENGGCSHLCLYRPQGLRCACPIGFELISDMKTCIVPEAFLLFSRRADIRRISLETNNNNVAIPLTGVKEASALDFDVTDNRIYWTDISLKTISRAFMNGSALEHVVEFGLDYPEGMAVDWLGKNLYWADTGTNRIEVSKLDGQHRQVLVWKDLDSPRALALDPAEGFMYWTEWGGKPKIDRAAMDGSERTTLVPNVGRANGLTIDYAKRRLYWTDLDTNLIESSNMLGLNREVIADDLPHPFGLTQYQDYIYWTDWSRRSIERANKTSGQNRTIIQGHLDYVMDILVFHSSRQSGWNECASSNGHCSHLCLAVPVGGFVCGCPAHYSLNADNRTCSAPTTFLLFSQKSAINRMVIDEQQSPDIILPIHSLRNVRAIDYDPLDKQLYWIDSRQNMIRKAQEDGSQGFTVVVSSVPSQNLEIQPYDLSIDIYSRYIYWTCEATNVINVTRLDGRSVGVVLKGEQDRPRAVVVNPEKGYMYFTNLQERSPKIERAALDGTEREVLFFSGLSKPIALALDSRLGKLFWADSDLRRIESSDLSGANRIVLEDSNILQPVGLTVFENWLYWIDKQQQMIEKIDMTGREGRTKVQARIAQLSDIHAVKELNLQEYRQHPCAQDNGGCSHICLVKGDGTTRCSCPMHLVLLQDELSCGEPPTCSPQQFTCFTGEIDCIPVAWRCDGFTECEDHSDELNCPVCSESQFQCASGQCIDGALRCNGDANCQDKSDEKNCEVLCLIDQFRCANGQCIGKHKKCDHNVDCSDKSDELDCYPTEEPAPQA

The target in another experiment is FZD7 CRD, Fc-tagged (human, UniProt O75084 33-185).
The target in the next experiment is T2, FZD2 CRD, Fc-tagged (human, UniProt Q14332 24-190).
T2 construct: domain: CRD; Bought; not shown: Fc tag of the purchased fusion

The target in a further experiment is T3, FZD1 CRD, Fc-tagged (human, UniProt Q9UP38 70-250).
T3 construct: domain: CRD; Bought; not shown: Fc tag of the purchased fusion
T3 sequence (Q9UP38 70-250): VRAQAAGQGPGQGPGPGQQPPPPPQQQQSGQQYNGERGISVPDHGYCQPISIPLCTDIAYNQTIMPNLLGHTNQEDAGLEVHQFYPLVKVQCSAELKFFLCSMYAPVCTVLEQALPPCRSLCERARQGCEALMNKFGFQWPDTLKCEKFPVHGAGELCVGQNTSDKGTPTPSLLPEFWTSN

B1: F^P*+P*-L6^1+3 (bispecific antibody)
knob: DIQMTQSPSSLSASVGDRVTITCRASQSVSSAVAWYQQKPGKAPKLLIYSASSLYSGVPSRFSGSRSGTDFTLTISSLQPEDFATYYCQQGVYLFTFGQGTKVEIKGTTAASGSSGGSSSGAEVQLVESGGGLVQPGGSLRLSCAASGFNIGSSSIHWVRQAPGKGLEWVASIYSAFASTSYADSVKGRFTISADTSKNTAYLQMNSLRAEDTAVYYCARYHFPFGFALDYWGQGTLVTVSSLEDKTHTKVEPKTSDKTHTCPPCPAPELLGGPSVFLFPPKPKDTLMISRTPEVTCVVVDVSHEDPEVKFNWYVDGVEVHNAKTKPREEQYNSTYRVVSVLTVLHQDWLNGKEYKCKVSNKALPAPIEKTISKAKGQPREPMVFDLPPSREEMTKNQVSLWCMVKGFYPSDIAVEWESNGQPENNYKTTPPVLDSDGSFFLYSKLTVDKSRWQQGNVFSCSVMHEALHNHYTQKSLSLSPGKSGSETPGTSESATPESGGGEVQLVESGGGLVQPGGSLRLSCAASGFNISYSSIHWVRQAPGKGLEWVAYISSYYGYTYYADSVKGRFTISADTSKNTAYLQMNSLRAEDTAVYYCARAHYFPWAGAMDYWGQGTLVTVSSGGGGSDIQMTQSPSSLSASVGDRVTITCRASQSVSSAVAWYQQKPGKAPKLLIYSASSLYSGVPSRFSGSRSGTDFTLTISSLQPEDFATYYCQQYYWPITFGQGTKVEIK
hole: DIQMTQSPSSLSASVGDRVTITCRASQSVSSAVAWYQQKPGKAPKLLIYSASSLYSGVPSRFSGSRSGTDFTLTISSLQPEDFATYYCQQGVYLFTFGQGTKVEIKGTTAASGSSGGSSSGAEVQLVESGGGLVQPGGSLRLSCAASGFNIGSSSIHWVRQAPGKGLEWVASIYSAFASTSYADSVKGRFTISADTSKNTAYLQMNSLRAEDTAVYYCARYHFPFGFALDYWGQGTLVTVSSLEDKTHTKVEPKSSDKTHNCPPCPAPELLGGPSVFLFPPKPKDTLMISRTPEVTCVVVDVSHEDPEVKFNWYVDGVEVHNAKTKPREEQYNSTYRVVSVLTVLHQDWLNGKEYKCKVSNKALPAPIEKTISKAKGQPREPQVYTLPPIRELMTSNQVSLSCAVKGFYPSDIAVEWESNGQPENNYKTTPPVLDSDGSFFLVSKLTVDKSRWQQGNVFSCSVMHEALHNHYTQKSLSLSPGKSGSETPGTSESATPESGGGEVQLVESGGGLVQPGGSLRLSCAASGFNISSYYIHWVRQAPGKGLEWVASIYSSYGYTSYADSVKGRFTISADTSKNTAYLQMNSLRAEDTAVYYCARTVRGSKKPYFSGWAMDYWGQGTLVTVSSGGGGSDIQMTQSPSSLSASVGDRVTITCRASQSVSSAVAWYQQKPGKAPKLLIYSASSLYSGVPSRFSGSRSGTDFTLTISSLQPEDFATYYCQQYSWGPFTFGQGTKVEIK
In the case of B1, the Kd in experiment [1] is 8.2 nM; with FZD7 CRD, Fc-tagged it was 0.027 nM; in the experiment with FZD2 CRD, Fc-tagged, 0.084 nM; in the experiment with FZD1 CRD, Fc-tagged, 0.09 nM.

B2: F^P*+P*-L6^1*+3* (bispecific antibody)
chain 1: DIQMTQSPSSLSASVGDRVTITCRASQSVSSAVAWYQQKPGKAPKLLIYSASSLYSGVPSRFSGSRSGTDFTLTISSLQPEDFATYYCQQGVYLFTFGQGTKVEIKGTTAASGSSGGSSSGAEVQLVESGGGLVQPGGSLRLSCAASGFNIGSSSIHWVRQAPGKGLEWVASIYSAFASTSYADSVKGRFTISADTSKNTAYLQMNSLRAEDTAVYYCARYHFPFGFALDYWGQGTLVTVSSLEDKTHTKVEPKTSDKTHTCPPCPAPELLGGPSVFLFPPKPKDTLMISRTPEVTCVVVDVSHEDPEVKFNWYVDGVEVHNAKTKPREEQYNSTYRVVSVLTVLHQDWLNGKEYKCKVSNKALPAPIEKTISKAKGQPREPMVFDLPPSREEMTKNQVSLWCMVKGFYPSDIAVEWESNGQPENNYKTTPPVLDSDGSFFLYSKLTVDKSRWQQGNVFSCSVMHEALHNHYTQKSLSLSPGKSGSETPGTSESATPESGGGDIQMTQSPSSLSASVGDRVTITCRASQSVSSAVAWYQQKPGKAPKLLIYSASSLYSGVPSRFSGSRSGTDFTLTISSLQPEDFATYYCQQYSWGPFTFGQGTKVEIKGTTAASGSSGGSSSGAEVQLVESGGGLVQPGGSLRLSCAASGFNISYSSIHWVRQAPGKGLEWVAYISSYYGYTYYADSVKGRFTISADTSKNTAYLQMNSLRAEDTAVYYCARAHYFPWAGAMDYWGQGTLVTVSS
chain 2: DIQMTQSPSSLSASVGDRVTITCRASQSVSSAVAWYQQKPGKAPKLLIYSASSLYSGVPSRFSGSRSGTDFTLTISSLQPEDFATYYCQQGVYLFTFGQGTKVEIKGTTAASGSSGGSSSGAEVQLVESGGGLVQPGGSLRLSCAASGFNIGSSSIHWVRQAPGKGLEWVASIYSAFASTSYADSVKGRFTISADTSKNTAYLQMNSLRAEDTAVYYCARYHFPFGFALDYWGQGTLVTVSSLEDKTHTKVEPKSSDKTHNCPPCPAPELLGGPSVFLFPPKPKDTLMISRTPEVTCVVVDVSHEDPEVKFNWYVDGVEVHNAKTKPREEQYNSTYRVVSVLTVLHQDWLNGKEYKCKVSNKALPAPIEKTISKAKGQPREPQVYTLPPIRELMTSNQVSLSCAVKGFYPSDIAVEWESNGQPENNYKTTPPVLDSDGSFFLVSKLTVDKSRWQQGNVFSCSVMHEALHNHYTQKSLSLSPGKSGSETPGTSESATPESGGGDIQMTQSPSSLSASVGDRVTITCRASQSVSSAVAWYQQKPGKAPKLLIYSASSLYSGVPSRFSGSRSGTDFTLTISSLQPEDFATYYCQQYYWPITFGQGTKVEIKGTTAASGSSGGSSSGAEVQLVESGGGLVQPGGSLRLSCAASGFNISSYYIHWVRQAPGKGLEWVASIYSSYGYTSYADSVKGRFTISADTSKNTAYLQMNSLRAEDTAVYYCARTVRGSKKPYFSGWAMDYWGQGTLVTVSS
B2: the Kd came out at 9.7 nM in experiment [1]; 0.1 nM with FZD7 CRD, Fc-tagged; 0.15 nM with FZD2 CRD, Fc-tagged; 0.13 nM with FZD1 CRD, Fc-tagged.

The term Kd denotes the free concentration of one partner at which half of the binding sites on the other are occupied at equilibrium, for simple one-to-one binding. Lower therefore signals a tighter complex.
